This note sets out measurements from paper PMC2919055 (Proteins, 2010).

Values joined by “and” are separate entries in the source; they are usually repeats but may differ in a detail not shown here. Equal values may be shown once. *: point of attachment. Carboxymethyl = O=C(O)C*

This series concerns the molecule itself. Nature of the series: cross-linking.

B1: C-MBD of A. fulgidus CopA with carboxymethylated cysteines (domain or fragment, Archaeoglobus fulgidus, UniProt O29777 736-804, looked up)
chain: GDSVEKIVLELSGLSC(Carboxymethyl)HHC(Carboxymethyl)VARVKKALEEAGAKVEKVDLNEAVVAGNKEDVDKYIKAVEAAGYQAKLRS
Regarding B1, the “stoichiometry N” value is 2 and 4.

A word on the stoichiometry N: it is the number of molecules, sites or subunits per partner or assembly.
